From US20100292442A1 (Amgen, published 2010)
Where two headings read alike, the source gives them in different places.

Key:
huIL-17RA-FLAG-polyHis = molecular target: T1, huIL-17RA-FLAG-polyHis (human, UniProt Q96F46 33-320); assay: Luminex binning; bead huIgG control (f15) + IL-17RA [D00007 Fig. 8B]
T1 construct: also called wild-type IL-17RA-FLAG-polyHis; HuIL-17RA-Flag-pHis
Method: Cross-competition studies were performed to determine IL-17RA binding characteristics of exemplary IL-17RA neutralizing antibodies. […] The method employed the Bio-Plex Workstation and software (BioRad, Hercules, Calif.), as well as reagents from Luminex® Corp. (Austin, Tex.). The manufacturers' basic protocols were followed except where noted below (see www.bio-rad.com and www.luminexcorp.com for details). […] The mouse-anti-human IgG coating was evaluated and the beads quantified by FACS. Each bead code was separately incubated with 10 ul of anti-IL-17RA antibody for 1 hour at room temperature and then washed. The beads were pooled and then dispensed to a 96-well filter plate (Millipore, Billerica, Mass., product #MSBVN1250). […] The PE-tagged monovalent antibody will detect the presence of the second mAb added to the well, but not the first mAb captured by the monovalent mouse-anti-human IgG antibody. Beads were resuspended in 120 ul PBSAT and at least 100 events/bead code were collected on the Bio-Plex workstation as per the manufacturer's recommended protocol.

[1] = molecular target: T2, cynomolgus IL-17RA on cells (cynomolgus); assay: FACS competition, non-clonal hybridoma supernatant; MFI of biotin-huIL-17A (competitor, 500 ng/ml) on cyno IL-17RA+ CHO cells
T2 construct: whole, on cells; also called CHO-cynoIL-17RA; cyno IL-17RA+ CHO cells

[2] = molecular target: T2, cynomolgus IL-17RA on cells; assay: as above; remark: listed apart in the source
Method: (§1) Non-clonal hybridoma supernatants were prepared in volumes of 1-2 mls (the Ig concentrations were not determined for these supernatants). […] Anti-IL-17RA non-clonal hybridomas were selected for sub-cloning based on their performance in the CHO-IL-17RA FACS assay and HFF bioassay.

[3] = molecular target: T3, Human IL-17RA full-length expressed on the surface of cells (human, UniProt Q96F46 33-866); assay: FACS competition, non-clonal hybridoma supernatant; % cells positive for biotin-huIL-17A (competitor, 500 ng/ml) on huIL-17RA+ CHO cells
T3 construct: used here for over-expressing CHO cells (FACS) and for the native receptor on human fibroblasts (bioassays); also called IL-17RA CHO cells; CHO-huIL-17RA
Method: as §1

[4] = molecular target: T3, Human IL-17RA full-length expressed on …; assay: FACS competition, non-clonal hybridoma supernatant; % cells positive for biotin-huIL-17A (competitor, 500 ng/ml) on huIL-17RA+ CHO cells (second % positive column)
Method: as §1

[5] = molecular target: T2, cynomolgus IL-17RA on cells; assay: FACS competition, non-clonal hybridoma supernatant; MFI of biotin-huIL-17A (competitor, 500 ng/ml) on cyno IL-17RA+ CHO cells; remark: listed apart in the source
[6] = molecular target: T2, cynomolgus IL-17RA on cells; assay: cell-based or functional assay

B1: AMH7/AML7 (antibody, V domains shown)
VH: QVQLVQSGAEVKKPGASVKVSCKASGYTLTRYGISWVRQAPGQGLEWMGWISAYNGNTNYAQKLQGRVTMTTDTSTSTAYMELRSLRSDDTAVYYCARRDYDILTGYYNGFDPWGQGTLVTVSS
VL: DIQMTQSPSSLSASVGDRVTITCRASQGIRNDLGWYQQKPGKAPKRLIYAASSLQSGVPSRFSGSGSGTEFTLTISSLQPEDFATYYCLQHKSYPLTFGGGTKVEIK
notes: Fully human mAb from IgG2 XenoMouse hybridomas
- normalized MFI (huIL-17RA-FLAG-polyHis): 123

B2: AMH1/AML1 (antibody, V domains shown)
VH: QVQLQESGPGLVKPSETLSLTCTVSGGSISNYYWNWIRQSPGKGLEWIGDIYYSGSTNYNPSLKSRVTISVDTSKNQFSLKLSSVTTADTAVYYCARDGELANYYGSGSYQFYYYYGMDVWGQGTTVTVSS
VL: DILMTQSPSSLSASVGDRVTITCRASQGIRNDLGWYQQKPGKAPKRLIYAASSLQSGVPSRFSGSGSGTEFTLTISSLQPEDFATYYCLQHNSNPFTFGPGTKVDIK
notes: as for B1
- MFI [1]: 11 MFI

B3: AMH5/AML5 (antibody, IgG2, V domains shown)
VH: QVQLQESGPGLVKPSETLPLTCTVSGGSIRSYYWSWIRQPAGKGLEWIGRIYRSGNTIYNPSLKSRVTMSIDTSKNQFSLTLSSVTAADTAVYYCARENYSESSGLYYYYGMDVWGQGTTVTVSS
VL: DIQMTQSPSSLSASVGDRVTITCRASQGIRNDLGWYQQKPGKAPKRLIYAASSFQSGVPSRFSGSGSGTGFTLTISSLQPEDFATYYCLQHNSYPPTFGQGTKVEIK
notes: Fully human mAb from IgG2 XenoMouse hybridomas; also called AM-5
- MFI [1]: 9 MFI

B4: AMH6/AML6 (antibody, V domains shown)
VH: QVQLVQSGAEVKKPGASVKVSCKASGYTLTRYGISWVRQAPGQGLEWMGWISAYNGNTNYAQKLQGRVTMTTDTSTSTAYMELRSLRSDDTAVYYCARRDYDILTGYYNGFDPWGQGTLVTVSS
VL: DIQMTQSPSSLSASVGDRVTITCRASQGIRNDLGWYQQKPGKAPKRLIYAASSLQSGVPSRFSGSGSGTEFTLTISSLQPEDFATYYCLQHKSYPLTFGGGTKVEIK
notes: as for B1
- normalized MFI (huIL-17RA-FLAG-polyHis): 26

B5: AMH8/AML8 (antibody, V domains shown)
VH: QVQLVQSGAEVKKPGASVKVSCKASGNTFTGYGISWVRQAPGQGLEWMGWISAYNGNTNYAQNLQGRVTMTTDTSTSTAYMELRSLRSDDTAVYYCARRDYDILTGYYNGFDPWGQGTLVTVSS
VL: DIQMTQSPSSLSASVGDRVTITCRASQGIRNDLGWYQQKPGKAPKRLIYAASSLQSGVPSRFSGSGSGTEFTLTISSLQPEDFATYYCLQHKSYPLTFGGGTKVEIK
notes: as for B1
- normalized MFI (huIL-17RA-FLAG-polyHis): 54

B6: AMH10/AML10 (antibody, V domains shown)
VH: QVQLQESGPGLVKPSQTLSLTCTVSGGSISSGGYYWSWIRQHPGKGLEWIGYIYFSGSAYYNPSLKSRVAISVDTSKNQFSLKLSSVTAADTAVYYCAREYYDSSGYPDAFDIWGQGTMVTVSS
VL: DIQMTQSPSSVSASVGDRVTITCRASQGIRSWLAWYQQKPGKAPKLLIFAASSLQSGVPSRFSGSGSGTEFTLTISSLQPEDFATYYCQQANNFPRTFGQGTKVEIK
notes: Fully human mAb from IgG2 XenoMouse hybridomas; also called AM-10
- normalized MFI (huIL-17RA-FLAG-polyHis): 140

B7: AMH13/AML13 (antibody, V domains shown)
VH: QVQLVESGGGVVQPGRSLRLSCAASGFTFSSYGMQWVRQAPGKGLEWVAVIWYDGNKKYYADSVKGRFTISRDNSKNTLYLQMNSLRAEDTAVYYCARGRVRDYYYGMDVWGQGTTVTVSS
VL: DIVMTQTPLSLSVTPGQPASIACKSSQSLLHSDGKTYLYWYLQKPGQPPQLLIYEVSTRFSGVPDRFSGSGSGTDFTLKISRVEAEDVGVFYCMQSIQLPLTFGGGTKVEIK
notes: as for B1
- MFI [2]: 6 MFI
- % positive [3]: 1.52%
- % positive [4]: 0.89%

B8: AMH22/AML22 (antibody, V domains shown)
VH: QVQLVQSGAEVKKPGASVKVSCKASGYTFTRYGISWVRQAPGQGLEWMGWISAYSGNTNYAQKLQGRVTMTTDTSTSTAYMELRSLRSDDTAVYYCARRQLYFDYWGQGTLVTVSS
VL: EIVMTQSPATLSVSPGERVTLSCRASQSVSSNLAWFQQKPGQAPRPLIYDASTRAAGIPARFSGSGSGTDFTLTISSLQSEDFAVYYCQQYDNWPLTFGGGTKVEIK
notes: Fully human mAb from IgG2 XenoMouse hybridomas; also called AM-22
- MFI [1]: 18 MFI

B9: AMH17/AML17 (antibody, V domains shown)
VH: QVQLVQSGAEVKKPGAAVKVSCKATGYTLTSYGISWVRQAPGQGLEWMGWISAYSGNTKYAQKLQGRVTMTTDTSTSTAYMELRSLRSDDTAVYYCARKQLVFDYWGQGTLVTVSS
VL: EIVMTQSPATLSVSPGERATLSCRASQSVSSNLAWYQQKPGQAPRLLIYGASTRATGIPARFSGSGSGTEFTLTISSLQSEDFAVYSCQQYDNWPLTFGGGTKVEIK
notes: Fully human mAb from IgG2 XenoMouse hybridomas; also called AM-17
- normalized MFI (huIL-17RA-FLAG-polyHis): 56
- MFI [2]: 8 MFI
- % positive [3]: 1.75%
- % positive [4]: 1.23%

B10: AMH15/AML15 (antibody, IgG2, V domains shown)
VH: QVQLVESGGGVVQPGRSLRLSCAASGFTFSSYGMQWVRQAPGKGLEWVAVIWYDGNKKYYADSVKGRFTISRDNSKNTLYLQMNSLRAEDTAVYYCARGRVRDYYYGMDVWGQGTTVTVSS
VL: EIVMTQSPATLSVSPGERVTLSCRASQSVSSNLAWFQQKPGQAPRPLIYDASTRAAGIPARFSGSGSGTDFTLTISSLQSEDFAVYYCQQYDNWPLTFGGGTKVEIK
notes: Fully human mAb from IgG2 XenoMouse hybridomas; also called AM-15
- MFI [5]: 6 MFI

B11: AMH12/AML12 (antibody, V domains shown)
VH: QVQLVQSGAEVKKPGASVKVSCKASGYTLTSYGISWVRQAPGQGLEWMGWISTYKGNTNYAQKLQGRVTMTTDTSTSTAYMELRSLRSDDTAVYYCARKQLVFDYWGQGTLVTVSS
VL: EIVMTQSPATLSVSPGERATLSCRASQSISSSLAWYQQKPGQAPRLLIYGASTRATGIPARFSGSGSGTEFTLTISSLQSENFAVYYCQQYDNWPLTFGGGTKVEIK
notes: Fully human mAb from IgG2 XenoMouse hybridomas; also called AM-12
- normalized MFI (huIL-17RA-FLAG-polyHis): 32
- MFI [2]: 6 MFI
- % positive [3]: 1%
- % positive [4]: 1.36%

B12: AMH16/AML16 (antibody, V domains shown)
VH: QVQLVQSGAEVKKPGASVKVSCKASGYTFTSYGISWVRQAPGQGLEWMGWISAYNGNTKYAQKLQGRVTMTTDTSTSTVYMELRSLRSDDTAVYYCARKQLVFDYWGQGTLVTVSS
VL: EIVMTQSPATLSVSPGERATLSCRASQSISTSLAWYQQKPGQAPRLLIYGTSTRATGIPARFSGSGSGTEFTLTISSLQSEDFAVYFCQQYDIWPLTFGGGTKVEIK
notes: Fully human mAb from IgG2 XenoMouse hybridomas; also called AM-16
- normalized MFI (huIL-17RA-FLAG-polyHis): 95
- MFI [2]: 6 MFI
- % positive [3]: 1.84%
- % positive [4]: 0.76%

B13: AMH14/AML14 (antibody, V domains shown)
VH: QVQLVQSGAEVKKPGASVKVSCKASGYTFTRYGISWVRQAPGQGLEWMGWISTYSGNTNYAQKLQGRVTMTTDTSTSTAYMELRSLRSDDTAVYYCARRQLYFDYWGQGTLVTVSS
VL: EIVMTQSPATLSVSPGERATLSCRASQSVSSNLAWFQQKPGQAPRPLIYDASTRATGVPARFSGSGSGTDFTLTISSLQSEDFAVYYCQQYDNWPLTFGGGTKVEIK
notes: Fully human mAb from IgG2 XenoMouse hybridomas; also called AM-14
- IC50, cynomolgous IL-17A-induced IL-6 production from JTC-12 cells [6]: ~1.2 nM
- MFI [5]: 10 MFI

B14: AMH21/AML21 (antibody, V domains shown)
VH: EVQLVESGGGSVQPGGSLRLSCAASGFTFSSYSMNWVRQAPGKGLEWVSIISSRSSIIHYADSVKGRFTISRDNAKNSLYLQMNSLRDEDTAVYYCARPKVGGGMDVWGQGTTVTVSS
VL: DIQMTQSPSSLSASVGDRVTITCRASQGISNYLAWYQQKPGKFPELLIYAASTLQSGVPSRFSGSGSGTDFTLTISSLQPEDVATYYCQKYNRAPFTFGPGTKVDIK
notes: Fully human mAb from IgG2 XenoMouse hybridomas; also called AM-21
- normalized MFI (huIL-17RA-FLAG-polyHis): 28
- MFI [5]: 6 MFI

B15: AMH20/AML20 (antibody, V domains shown)
VH: EVQLVESGGGLVQPGGSLRLSCAASGFTFSSYSMNWVRQAPGKGLEWVSFISARSSTIYYADSVKGRFTISRDNAKNSLYLQMNSLRDEDTAVYYCARPKVGGGMDVWGQGTTVTVSS
VL: DIQMTQSPSSLSASVGDRVTITCRASQGISNYLAWYQQKPGKFPELLIYAASTLQSGVPSRFSGSGSGTDFTLTISSLQPEDVATYYCQKYNRAPFTFGPGTKVDIK
notes: Fully human mAb from IgG2 XenoMouse hybridomas; also called AM-20
- normalized MFI (huIL-17RA-FLAG-polyHis): 50

B16: AMH4/AML4 (antibody, V domains shown)
VH: QVQLVESGGGVVQPGRSLRLSCAASGINFSSYGMHWVRQAPGKGLEWVAVIWYDGSNKHYADSVKGRFTISRDNSKNTLYLQMNSLRAEDTAVYYCARDTGVYWGQGTLVTVSS
VL: not shown
notes: as for B1
- normalized MFI (huIL-17RA-FLAG-polyHis): 37

B17: AMH11/AML11 (antibody, V domains shown)
VH: QVQLVESGGGVVQPGRSLRLSCATSGITFSSYGMHWVRQAPGKGLEWVAVIWYDGSNKYYADSVKGRFTISRDNSKNTLYLQMNSLRAEDTAVYYCARDTKDYWGQGTLVTVSS
VL: EIVMTQSPATLSVSPGERATLSCRASQSVSSNLAWYQQKPGQAPRLLIYGASTRAAGIPARFSGGGSGTAFTLTISNLQSEDFAVYYCQHYINWPKWTFGQGTKVDIK
notes: as for B1
- normalized MFI (huIL-17RA-FLAG-polyHis): 84
- MFI [1]: 9 MFI

B18: AMH18/AML18 (antibody, V domains shown)
VH: QVQLVQSGAEVKKPGASVKVSCKASGYSFTDYYMHWVRQAPGQGLEWMGWMHPNSGGTDLAQRFQGRVTMTRDTSISTAYMELSRLRSDDTAVYYCARGGYCSTLSCSFYWYFDLWGRGTLVTVSS
VL: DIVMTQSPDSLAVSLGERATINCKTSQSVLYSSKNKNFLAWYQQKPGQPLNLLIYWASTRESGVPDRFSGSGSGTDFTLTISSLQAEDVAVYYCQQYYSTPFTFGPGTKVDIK
notes: as for B1
- normalized MFI (huIL-17RA-FLAG-polyHis): -5
